Assays:
[1] = Kinetic assay with p-nitrophenyl β-D-galactopyranoside, absorbance at 405 nm; assay type: biochemical; conditions: pNPGal
Protocol: The kinetic activity of SsδG was assessed using ultra-violet/visible spectroscopy. Cleavage of the glycosidic bond of the nitrophenyl sugar analogue releases a chromophore (Scheme 18), either p-nitrophenol or o-nitrophenol.
The absorbance of these chromophores at 405 nm was continuously measured at regular time intervals, and the Beer-Lambert Law used to calculate the chromophore concentration at each of these time intervals.
In order to use this equation the extinction coefficient, ∈, of both p-nitrophenol and o-nitrophenol were calculated. Enzyme kinetic parameters were assessed using the initial rates method. The gradient of a plot of chromophore concentration against time gave the initial rate of reaction at a series of substrate concentrations (0.05-10 mM). Kinetic parameters were calculated by regression analysis of the kinetic data on the Michaelis-Menten Model (Fersht, A., Enzyme Structure and Mechanism, W.H. Freeman and Company, New York (1985)). The initial rate of reaction was measured. This model is valid when [substrate]>>[enzyme], which are initial rate conditions.
KM and νmax were calculated from non-linear Michaelis-Menten and linear Lineweaver-Burk plots. From these values, kcat and kcat/KM were calculated and compared.
KM=νmax/2, it is the concentration of substrate at which half the active sites are filled. Higher KM values correspond to weaker binding and lower KM values correspond to stronger binding kcat, the turnover number is the number of substrate molecules which are converted to product when the enzyme is saturated with substrate and ν (rate) is maximised. Given both of these considerations, binding and rate, kcat/KM is typically as a measure of the overall relative activity of the enzyme. To allow comparison of the activity of the enzymes, ln({kcat/KM}mutant/{kcat/KM}WT) was calculated for each enzyme-substrate combination, to give overall activity relative to WT.
Substrate solutions (concentration 10 mM in 50 mM pH 6.5 phosphate buffer) were prepared. Kinetic assays were conducted in a 96-well flat bottom microtitre plate. Eight substrate concentrations were chosen for the assay from the range 0.05 mM to 10 mM (prepared from 10 mM stock solution), based on previous experimental experience of the kinetics of each enzyme (default range 0.05 mM to 2.00 mM)*. The enzyme stock solution (˜1 mgmL^−1) was diluted between 16- and 80-fold depending on the kinetic parameters determined*. The enzyme solution (496 µL) was dispensed into a 1.5 mL sealed Eppendorf tube. Into eight further Eppendorf tubes a portion of each substrate solution (650 μL) was dispensed. The tubes were incubated in a Techni Dri Block at 45° C. Simultaneously a 96-well flat bottom microtitre plate was incubated at 45° C. in a plate reader. […] The plate containing the enzyme and substrate solutions was then incubated in the plate reader at 45° C. to allow equilibration. […] Release of p-nitrophenol/o-nitropbenol was measured by absorbance at […], with an automix of 3 s before the first read and Is between every subsequent read. The run time chosen was between 6 min and 10 min*, and readings were taken at intervals of between 6 s and 10 s*.
A graph of concentration of the released chromophore (either pNP or oNP) against time was drawn for each concentration using Microsoft Excel. […] These gradients were entered into Grafit, which calculated KM and νmax from the Michelis-Menten and Lineweaver-Burk plots. From these kcat and kcat/KM could be calculated. […]

[2] = Hydrolysis of 4-methylumbelliferyl-β-D-glucoside, initial rates; assay type: biochemical; conditions: 4-MUGlc, 80° C., pH 6.5
Protocol: Parameters were determined by the method of initial rates. Activity was measured in time course assays of the hydrolysis of 4-methylumbelliferyl-β-D-glycosides (β-D-gluco, β-D-galacto, β-D-fuco, β-D-manno, β-D-xylo, β-D-glucurono) at 5-15 concentrations (0.001-1.5 mM) incubated at 80° C. in 50 mM sodium phosphate buffer, pH 6.5. Reactions were terminated at 2, 5, 10, 15 min by the addition of 100 μl of ice cold 1M NazCO3, pH 10 and analyzed (Labsystems Fluoroscan Ascent plate reader, […]). KM and kcat were derived by fitting the initial rates to hyperbolic Michaelis-Menten curves using GraFit 4 (Erithacus Software Ltd, Staines, UK).
Determination of the Michaelis-Menten parameters for the WT and mutant enzymes was performed at pH 6.5 at 80° C. for a broad range of representative, fluorophore-containing 4-methylumbelliferyl glycoside substrates, which allowed activities to be determined with a high degree of sensitivity (Table). Under these optimized assay conditions, the glucoside (Glc), galactoside (Gal) and fucoside (Fuc) substrates were hydrolysed well by SSβG-WT, but the xyloside (Xyl) substrate was hydrolysed relatively poorly (approx. 3% of turnover as determined by kcat compared with β-D-glucoside). […] In all cases the absolute D-stereospecificity and β-stereoselectivity of SSβG was maintained and no activity was detected towards L- or α-glycoside substrates.

B1: WT: Wild type β-glycosidase from Sulfolobus solfataricus (SEQ ID NO: 2), recombinant with N-terminal His6-tag (protein, listed as Sulfolobus solfataricus)
chain: MYSFPNSFRFGWSQAGFQSEMGTPGSEDPNTDWYKWVHDPENMAAGLVSGDLPENGPGYWGNYKTFHDNAQKMGLKIARLNVEWSRIFPNPLPRPQNFDESKQDVTEVEINENELKRLDEYANKDALNHYREIFKDLKSRGLYFILNMYHWPLPLWLHDPIRVRRGDFTGPSGWLSTRTVYEFARFSAYIAWKFDDLVDEYSTMNEPNVVGGLGYVGVKSGFPPGYLSFELSRRHMYNIIQAHARAYDGIKSVSKKPVGIIYANSSFQPLTDKDMEAVEMAENDNRWWFFDAIIRGEITRGNEKIVRDDLKGRLDWIGVNYYTRTVVKRTEKGYVSLGGYGHGCERNSVSLAGLPTSDFGWEFFPEGLYDVLTKYWNRYHLYMYVTENGIADDADYQRPYYLVSHVYQVHRAINSGADVRGYLHWSLADNYEWASGFSMRFGLLKVDYNTKRLYWRPSALVYREIATNGAITDEIEHLNSVPPVKPLRH
modifications: N-terminal His6 tag
- kcat ([1]; 45° C., pH 6.5 phosphate buffer, averaged over 3 runs, except * 2 runs): 5.07 s⁻¹
- Km ([1]; 45° C., pH 6.5 phosphate buffer, averaged over 3 runs, except * 2 runs, read-out: KM): 459 µM
- Km ([1]; read-out: average KM): 459 µM
- Km [2]: 46 ± 17 µM
- kcat [2]: 140 ± 20 s⁻¹

Source: US20090181444A1, “MODIFIED CARBOHYDRATE PROCESSING ENZYME” (priority 2002, published 2009)
